# In the supplement of paper PMC5998384:
# How the values were obtained:
# HeLa Kyoto [1] = assay: solubility change mitosis vs G1/S (difference of NP-40 vs SDS log2 ratios) (log2 ratio difference); higher = more soluble in mitosis
# HeLa Kyoto [2] = assay: solubility in G1/S (NP-40 vs SDS abundance) (log2 ratio); higher = more soluble; details: cell cycle stage: G1/S
# 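Wherever solubility change mitosis vs G1/S (difference of NP-40 vs SDS log2 ratios) is given: synchronized HeLa Kyoto cells (double thymidine block for G1/S, nocodazole release for mitosis), protein amounts in NP-40 versus SDS lysates quantified by mass spectrometry, three biological replicates.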
# 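Wherever solubility in G1/S (NP-40 vs SDS abundance) is given: HeLa Kyoto cells arrested at G1/S by double thymidine block, proteins quantified by TMT10plex mass spectrometry in mild NP-40 versus SDS extracts, three biological replicates.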
Sequence,solubility change mitosis (log2) (HeLa Kyoto [1]),solubility in G1/S (log2) (HeLa Kyoto [2])
MAAVAMTPNPVQTLQEEAVCAICLDYFTDPVSIGCGHNFCRVCVTQLWGGEDEEDRDELDREEEEEDGEEEEVEAVGAGAGWDTPMRDEDYEGDMEEEVEEEEEGVFWTSGMSRSSWDNMDYVWEEEDEEEDLDYYLGDMEEEDLRGEDEEDEEEVLEEVEEEDLDPVTPLPPPPAPRRCFTCPQCRKSFPRRSFRPNLQLANMVQVIRQMHPTPGRGSRVTDQGICPKHQEALKLFCEVDEEAICVVCRESRSHKQHSVVPLEEVVQEYKAKLQGHVEPLRKHLEAVQKMKAKEERRVTELKSQMKSELAAVASEFGRLTRFLAEEQAGLERRLREMHEAQLGRAGAAASRLAEQAAQLSRLLAEAQERSQQGGLRLLQDIKETFNRCEEVQLQPPEVWSPDPCQPHSHDFLTDAIVRKMSRMFCQAARVDLTLDPDTAHPALMLSPDRRGVRLAERRQEVADHPKRFSADCCVLGAQGFRSGRHYWEVEVGGRRGWAVGAARESTHHKEKVGPGGSSVGSGDASSSRHHHRRRRLHLPQQPLLQREVWCVGTNGKRYQAQSSTEQTLLSPSEKPRRFGVYLDYEAGRLGFYNAETLAHVHTFSAAFLGERVFPFFRVLSKGTRIKLCP [TRIM41],0.254,-0.886
MAAVGPPQQQVRMAHQQVWAALEVALRVPCLYIIDAIFNSYPDSSQSRFCIVLQIFLRLFGVFASSIVLILSQRSLFKFYTYSSAFLLAATSVLVNYYASLHIDFYGAYNTSAFGIELLPRKGPSLWMALIVLQLTFGIGYVTLLQIHSIYSQLIILDLLVPVIGLITELPLHIRETLLFTSSLILTLNTVFVLAVKLKWFYYSTRYVYLLVRHMYRIYGLQLLMEDTWKRIRFPDILRVFWLTRVTAQATVLMYILRMANETDSFFISWDDFWDLICNLIISGCDSTLTVLGMSAVISSVAHYLGLGILAFIGSTEEDDRRLGFVAPVLFFILALQTGLSGLRPEERLIRLSRNMCLLLTAVLHFIHGMTDPVLMSLSASHVSSFRRHFPVLFVSACLFILPVLLSYVLWHHYALNTWLFAVTAFCVELCLKVIVSLTVYTLFMIDGYYNVLWEKLDDYVYYVRSTGSIIEFIFGVVMFGNGAYTMMFESGSKIRAFMMCLHAYFNIYLQAKNGWKTFMNRRTAVKKINSLPEIKGSRLQEINDVCAICYHEFTTSARITPCNHYFHALCLRKWLYIQDTCPMCHQKVYIEDDIKDNSNVSNNNGFIPPNETPEEAVREAAAESDRELNEDDSTDCDDDVQRERNGVIQHTGAAAEEFNDDTD [RNF139],-0.107,-0.206
MAAWSPAAAAPLLRGIRGLPLHHRMFATQTEGELRVTQILKEKFPRATAIKVTDISGGCGAMYEIKIESEEFKEKRTVQQHQMVNQALKEEIKEMHGLRIFTSVPKR [BOLA3],0.234,0.378
MAEAATGFLEQLKSCIVWSWTYLWTVWFFIVLFLVYILRVPLKINDNLSTVSMFLNTLTPKFYVALTGTSSLISGLILIFEWWYFRKYGTSFIEQVSVSHLRPLLGGVDNNSSNNSNSSNGDSDSNRQSVSECKVWRNPLNLFRGAEYNRYTWVTGREPLTYYDMNLSAQDHQTFFTCDSDHLRPADAIMQKAWRERNPQARISAAHEALEINEIRSRVEVPLIASSTIWEIKLLPKCATAYILLAEEEATTIAEAEKLFKQALKAGDGCYRRSQQLQHHGSQYEAQHRRDTNVLVYIKRRLAMCARRLGRTREAVKMMRDLMKEFPLLSMFNIHENLLEALLELQAYADVQAVLAKYDDISLPKSATICYTAALLKARAVSDKFSPEAASRRGLSTAEMNAVEAIHRAVEFNPHVPKYLLEMKSLILPPEHILKRGDSEAIAYAFFHLAHWKRVEGALNLLHCTWEGTFRMIPYPLEKGHLFYPYPICTETADRELLPSFHEVSVYPKKELPFFILFTAGLCSFTAMLALLTHQFPELMGVFAKAMIDIFCSAEFRDWNCKSIFMRVEDELEIPPAPQSQHFQN [ST7],0.0591,-0.381
MAEAATPGTTATTSGAGAAAATAAAASPTPIPTVTAPSLGAGGGGGGSDGSGGGWTKQVTCRYFMHGVCKEGDNCRYSHDLSDSPYSVVCKYFQRGYCIYGDRCRYEHSKPLKQEEATATELTTKSSLAASSSLSSIVGPLVEMNTGEAESRNSNFATVGAGSEDWVNAIEFVPGQPYCGRTAPSCTEAPLQGSVTKEESEKEQTAVETKKQLCPYAAVGECRYGENCVYLHGDSCDMCGLQVLHPMDAAQRSQHIKSCIEAHEKDMELSFAVQRSKDMVCGICMEVVYEKANPSERRFGILSNCNHTYCLKCIRKWRSAKQFESKIIKSCPECRITSNFVIPSEYWVEEKEEKQKLILKYKEAMSNKACRYFDEGRGSCPFGGNCFYKHAYPDGRREEPQRQKVGTSSRYRAQRRNHFWELIEERENSNPFDNDEEEVVTFELGEMLLMLLAAGGDDELTDSEDEWDLFHDELEDFYDLDL [MKRN1],-0.322,0.102
MAEAGAGLSETVTETTVTVTTEPENRSLTIKLRKRKPEKKVEWTSDTVDNEHMGRRSSKCCCIYEKPRAFGESSTESDEEEEEGCGHTHCVRGHRKGRRRATLGPTPTTPPQPPDPSQPPPGPMQH [PPP1R11],0.00513,-0.804
MAEASFGSSSPVGSLSSEDHDFDPTAEMLVHDYDDERTLEEEEMMDEGKNFSSEIEDLEKEGTMPLEDLLAFYGYEPTIPAVANSSANSSPSELADELPDMTLDKEEIAKDLLSGDDEETQSSADDLTPSVTSHETSDFFPRPLRSNTACDGDKESEVEDVETDSGNSPEDLRKEIMIGLQYQAEIPPYLGEYDGNEKVYENEDQLLWCPDVVLESKVKEYLVETSLRTGSEKIMDRISAGTHTRDNEQALYELLKCNHNIKEAIERYCCNGKASQEGMTAWTEEECRSFEHALMLFGKDFHLIQKNKVRTRTVAECVAFYYMWKKSERYDYFAQQTRFGKKRYNHHPGVTDYMDRLVDETEALGGTVNASALTSNRPEPIPDQQLNILNSFTASDLTALTNSVATVCDPTDVNCLDDSFPPLGNTPRGQVNHVPVVTEELLTLPSNGESDCFNLFETGFYHSELNPMNMCSEESERPAKRLKMGIAVPESFMNEVSVNNLGVDFENHTHHITSAKMAVSVADFGSLSANETNGFISAHALHQHAALHSE [MIER3],-0.33,0.163
MAEASSLGRQSPRVVSCLEHSLCPGEPGLQTTAVVSMGSGDHQFNLAEILSQNYSVRGECEEASRCPDKPKEELEKDFISQSNDMPFDELLALYGYEASDPISDRESEGGDVAPNLPDMTLDKEQIAKDLLSGEEEEETQSSADDLTPSVTSHEASDLFPNRSGSRFLADEDREPGSSASSDTEEDSLPANKCKKEIMVGPQFQADLSNLHLNRHCEKIYENEDQLLWDPSVLPEREVEEFLYRAVKRRWHEMAGPQLPEGEAVKDSEQALYELVKCNFNVEEALRRLRFNVKVIRDGLCAWSEEECRNFEHGFRVHGKNFHLIQANKVRTRSVGECVEYYYLWKKSERYDYFAQQTRLGRRKYVPSGTTDADQDLDGSDPDGPGRPRPEQDTLTGMRTDPLSVDGTAGGLDEPGVASDGLPSSEPGPCSFQQLDESPAVPLSHRPPALADPASYQPAVTAPEPDASPRLAVDFALPKELPLISSHVDLSGDPEETVAPAQVALSVTEFGLIGIGDVNPFLAAHPTCPAPGLHSEPLSHCNVMTC [MIER2],-0.304,0.172
MAEGPEEARGHPPGQDDGGGDHEPVPSLRGPPTTAVPCPRDDPQAEPQAPGRPTAPGLAAAAAADKLEPPRELRKRGEAASGSGAELQEQAGCEAPEAAAPRERPARLSAREYSRQVHEWLWQSYCGYLTWHSGLAAFPAYCSPQPSPQSFPSGGAAVPQAAAPPPPQLGYYNPFYFLSPGAAGPDPRTAAGISTPAPVAGLGPRAPHVQASVRATPVTRVGSAAPSRSPSETGRQAGREYVIPSLAHRFMAEMVDFFILFFIKATIVLSIMHLSGIKDISKFAMHYIIEEIDEDTSMEDLQKMMVVALIYRLLVCFYEIICIWGAGGATPGKFLLGLRVVTCDTSVLIAPSRVLVIPSSNVSITTSTIRALIKNFSIASFFPAFITLLFFQHNRTAYDIVAGTIVVKRNGVR [FAM8A1],0.0402,-0.0476
MAENLKGCSVCCKSSWNQLQDLCRLAKLSCPALGISKRNLYDFEVEYLCDYKKIREQEYYLVKWRGYPDSESTWEPRQNLKCVRILKQFHKDLERELLRRHHRSKTPRHLDPSLANYLVQKAKQRRALRRWEQELNAKRSHLGRITVENEVDLDGPPRAFVYINEYRVGEGITLNQVAVGCECQDCLWAPTGGCCPGASLHKFAYNDQGQVRLRAGLPIYECNSRCRCGYDCPNRVVQKGIRYDLCIFRTDDGRGWGVRTLEKIRKNSFVMEYVGEIITSEEAERRGQIYDRQGATYLFDLDYVEDVYTVDAAYYGNISHFVNHSCDPNLQVYNVFIDNLDERLPRIAFFATRTIRAGEELTFDYNMQVDPVDMESTRMDSNFGLAGLPGSPKKRVRIECKCGTESCRKYLF [SUV39H1],-0.415,-0.773
MAEPSQAPTPAPAAQPRPLQSPAPAPTPTPAPSPASAPIPTPTPAPAPAPAAAPAGSTGTGGPGVGSGGAGSGGDPARPGLSQQQRASQRKAQVRGLPRAKKLEKLGVFSACKANETCKCNGWKNPKPPTAPRMDLQQPAANLSELCRSCEHPLADHVSHLENVSEDEINRLLGMVVDVENLFMSVHKEEDTDTKQVYFYLFKLLRKCILQMTRPVVEGSLGSPPFEKPNIEQGVLNFVQYKFSHLAPRERQTMFELSKMFLLCLNYWKLETPAQFRQRSQAEDVATYKVNYTRWLCYCHVPQSCDSLPRYETTHVFGRSLLRSIFTVTRRQLLEKFRVEKDKLVPEKRTLILTHFPKFLSMLEEEIYGANSPIWESGFTMPPSEGTQLVPRPASVSAAVVPSTPIFSPSMGGGSNSSLSLDSAGAEPMPGEKRTLPENLTLEDAKRLRVMGDIPMELVNEVMLTITDPAAMLGPETSLLSANAARDETARLEERRGIIEFHVIGNSLTPKANRRVLLWLVGLQNVFSHQLPRMPKEYIARLVFDPKHKTLALIKDGRVIGGICFRMFPTQGFTEIVFCAVTSNEQVKGYGTHLMNHLKEYHIKHNILYFLTYADEYAIGYFKKQGFSKDIKVPKSRYLGYIKDYEGATLMECELNPRIPYTELSHIIKKQKEIIKKLIERKQAQIRKVYPGLSCFKEGVRQIPVESVPGIRETGWKPLGKEKGKELKDPDQLYTTLKNLLAQIKSHPSAWPFMEPVKKSEAPDYYEVIRFPIDLKTMTERLRSRYYVTRKLFVADLQRVIANCREYNPPDSEYCRCASALEKFFYFKLKEGGLIDK [KAT2A],-0.058,0.0904
MAETSPEPSGQLVVHSDAHSDTVLASFEDQRKKGFLCDITLIVENVHFRAHKALLAASSEYFSMMFAEEGEIGQSIYMLEGMVADTFGILLEFIYTGYLHASEKSTEQILATAQFLKVYDLVKAYTDFQNNHSSPKPTTLNTAGAPVVVISNKKNDPPKRKRGRPKKVNTLQEEKSELAAEEEIQLRVNNSVQNRQNFVVKGDSGVLNEQIAAKEKEESEPTCEPSREEEMPVEKDENYDPKTEDGQASQSRYSKRRIWRSVKLKDYKLVGDQEDHGSAKRICGRRKRPGGPEARCKDCGKVFKYNHFLAIHQRSHTGERPFKCNECGKGFAQKHSLQVHTRMHTGERPYTCTVCSKALTTKHSLLEHMSLHSGQKSFTCDQCGKYFSQNRQLKSHYRVHTGHSLPECKDCHRKFMDVSQLKKHLRTHTGEKPFTCEICGKSFTAKSSLQTHIRIHRGEKPYSCGICGKSFSDSSAKRRHCILHTGKKPFSCPECNLQFARLDNLKAHLKIHSKEKHASDASSISGSSNTEEVRNILQLQPYQLSTSGEQEIQLLVTDSVHNINFMPGPSQGISIVTAESSQNMTADQAANLTLLTQQPEQLQNLILSAQQEQTEHIQSLNMIESQMGPSQTEPVHVITLSKETLEHLHAHQEQTEELHLATSTSDPAQHLQLTQEPGPPPPTHHVPQPTPLGQEQS [ZBTB24],0.142,-0.495
